The record followed here is publication PMC6017478, “Exploring Alternative Radiolabeling Strategies for Sialic Acid-Binding Immunoglobulin-Like Lectin 9 Peptide: [^68Ga]Ga- and [^18F]AlF-NOTA-Siglec-9” (Molecules : A Journal of Synthetic Chemistry and Natural …, 2018).

The conditions of data set [1]: rat, in vivo, iv. The procedure: The rats were subcutaneously injected with 50 µL turpentine oil (Sigma-Aldrich) into the right shoulder area (foreleg) to induce skin/muscle inflammation, which was allowed to develop for 24 h prior to PET imaging. For imaging and ex vivo analysis, the rats were anesthetized using isoflurane and intravenously injected with 17.7 ± 3.4 MBq of one of the two radiotracers via the tail vein cannula. Immediately after injection a dynamic 60-min PET scan was performed on four rats for [^68Ga]Ga-NOTA-Siglec-9 and four rats for [^18F]AlF-NOTA-Siglec-9. The data were acquired in list-mode and iteratively reconstructed with a 3-D ordered subsets expectation maximization algorithm with 8 iterations, 16 subsets, and a 2-mm full-width at half-maximum post-filter into 6 × 10 s, 4 × 60 s, 5 × 300 s, and 3 × 600 s time frames. After imaging, the rats were euthanized, and various tissues, including inflamed skin/muscle (inflamed area) from the right foreleg, skin from the left foreleg (control area), and healthy muscle from the left hind leg, were excised, weighed, and measured with a γ-counter. The ex vivo radioactivity measurements were decay-corrected from the time of injection, and the results were expressed as SUV. Plasma protein binding was measured from plasma samples taken from 60 min post-injections. […] Radioactivity of both the precipitate and the supernatant was measured by γ-counting.

The format of data set [2] is physicochemical. The note with it: pH 7.6. The procedure:
The distribution coefficient (Log D) was measured by adding 5 kBq of tracer into a mixture of PBS (pH 7.6) and 1-octanol (1:1, v/v). The solution was mixed thoroughly for 5 min at room temperature. After separation of phases by centrifugation (12,000× g, 6 min), 100 µL aliquots of each phase layer were taken for γ-counting to determine Log D. The test was repeated three times. Log D was calculated as Log D=log10 counts per minute in octanol/counts per minute in PBS .

Positions of bridges follow the written chain, without caps; N, C: chain ends. Residues, ends and D or L forms follow the SMILES beside them. Groups on a side chain read outwards from the residue. *: point of attachment. NOTA = O=C(O)CN1CCN(CC(=O)O)CCN(CC(=O)*)CC1; AEEA = NCCOCCOCC(=O)O

As usually defined, the Log D is lipophilicity at a set pH, counting ionised and neutral species. A low value points to lower lipophilicity. As for `CC(C)C[C@@H]1NC(=O)CNC(=O)[C@H](CCCNC(=N)N)NC(=O)[C@H](Cc2c[nH]c3ccccc23)NC(=O)[C@H](CO)NC(=O)[C@H](CC(C)C)NC(=O)[C@H](CO)NC(=O)[C@H](CC(C)C)NC(=O)[C@H](CCCNC(=N)N)NC(=O)[C@H](C)NC(=O)[C@@H](N)CSSC[C@@H](C(=O)N2CCC[C@H]2C(=O)N[C@@H](CO)C(=O)N[C@@H](CCCCNC(=O)COCCOCCNC(=O)CN2CCN(CC(=O)O)CCN(CC(=O)O)CC2)C(=O)O)NC(=O)[C@H](CC(C)C)NC(=O)[C@H]([C@@H](C)O)NC1=O` [[^68Ga]Ga-NOTA-Siglec-9] [metal not drawn] (H-CARLSLSWRGLTLCPSK([AEEA-NOTA])-OH; disulfide 1-14), the Plasma protein binding in data set [1] was 31.4 ± 3.4%. Also, in data set [2], the pH-dependent lipophilicity (Log D) is −3.2 ± 0.3.
